From US20150344570A1 (published 2015) come the findings set out here.

The target in assay [1] is T1, FcgRIa (human, UniProt P12314 16-292).
T1 construct: extracellular domain; Soluble extracellular domain expressed in FreeStyle293 cells; also called FcγRIa; FcγRI; not shown: His tag attached to the C terminus
As to the kind of experiment: SPR (Biacore); KD of H240-Kn120/H240-Hl068/L73-k0 divided by KD of the sample. The method, then:
(§1) Analysis of interaction between objective antibody and the FcγR was carried out using Biacore T100 (GE Healthcare), Biacore T200, Biacore A100, and Biacore 4000. HBS-EP+ (GE Healthcare) was used as the running buffer, and the measurement temperature was set to 25° C. Chips produced by immobilizing the antigen peptide by the amine coupling method to a Series S sensor Chip CM5 (GE Healthcare), chips produced by allowing preliminarily biotinylated antigen peptides to interact with and immobilize onto a Series S Sensor Chip SA (certified) (GE Healthcare), chips produced by immobilizing Protein L (ACTIGEN, BioVision) to Series S Sencor Chip CM5 (GE Healthcare), or chips produced by immobilizing Protein A/G (Thermo Scientific) to Series S Sencor Chip CM5 (GE Healthcare) were used. Antibodies of interest were captured onto these chips, and allowed to interact to each FcγR diluted with running buffer. To regenerate and repeatedly use the chip, the antibodies captured onto the chip were washed off by reacting 10 mM glycine-HCl, pH 1.5.
(In SPR one partner is held on a chip, and binding of the other changes the refractive index at the surface.)

Assay [2] concerns the target T2, FcgRIIaR (human, UniProt P12318 34-217).
T2 construct: extracellular domain; Allotype R131; also called FcγRIIa R; FcgRIIa type R; not shown: His tag attached to the C terminus
T2 sequence (looked up): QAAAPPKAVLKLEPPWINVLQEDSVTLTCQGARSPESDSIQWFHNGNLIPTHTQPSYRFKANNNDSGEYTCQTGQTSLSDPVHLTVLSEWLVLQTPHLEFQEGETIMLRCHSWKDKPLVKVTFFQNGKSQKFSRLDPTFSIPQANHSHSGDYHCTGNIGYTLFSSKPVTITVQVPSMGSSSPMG
The description is as above. The method, then:
as §1

For assay [3], the target named is T3, FcgRIIaH (human, UniProt P12318 34-217).
T3 construct: extracellular domain; Allotype H131; also called FcγRIIa H; FcgRIIa type H; not shown: His tag attached to the C terminus
T3 sequence (looked up): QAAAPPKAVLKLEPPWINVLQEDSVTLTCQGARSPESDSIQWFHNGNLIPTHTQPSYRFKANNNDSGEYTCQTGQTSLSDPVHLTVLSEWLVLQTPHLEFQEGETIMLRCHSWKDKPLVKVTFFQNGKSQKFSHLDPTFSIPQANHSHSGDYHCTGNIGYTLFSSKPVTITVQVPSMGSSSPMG
The assay is described as above. The method, then:
as §1

For assay [4], the target named is T4, FcgRIIb (human, UniProt P31994 43-217).
T4 construct: extracellular domain; also called FcγRIIb; CD32B; not shown: His tag attached to the C terminus
T4 sequence (looked up): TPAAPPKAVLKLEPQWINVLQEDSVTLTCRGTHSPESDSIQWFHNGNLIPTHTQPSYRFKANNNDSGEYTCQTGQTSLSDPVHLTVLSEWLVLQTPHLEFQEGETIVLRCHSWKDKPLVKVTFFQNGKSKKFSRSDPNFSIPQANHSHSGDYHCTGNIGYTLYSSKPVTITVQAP
Described as above. The method, then:
as §1

The target of assay [5] is T5, FcgRIIIaV (human, UniProt P08637 17-208).
T5 construct: extracellular domain; Allotype V158; also called FcγRIIIa V; not shown: His tag attached to the C terminus
The assay is described as above. The method, then: as §1
T5 sequence (P08637 17-208 F176V limits assumed): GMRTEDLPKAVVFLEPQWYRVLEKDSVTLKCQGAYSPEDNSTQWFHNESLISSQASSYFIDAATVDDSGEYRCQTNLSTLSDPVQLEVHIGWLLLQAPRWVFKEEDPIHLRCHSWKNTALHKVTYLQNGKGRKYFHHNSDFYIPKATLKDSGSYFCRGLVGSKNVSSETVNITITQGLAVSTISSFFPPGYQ

Assay [6] has as its target T6, FcgRIIaR (human, UniProt P12318 34-217).
T6 construct: extracellular domain; also called FcγRIIa R; FcγRIIa type R; not shown: His tag at the C terminus
T6 sequence (looked up): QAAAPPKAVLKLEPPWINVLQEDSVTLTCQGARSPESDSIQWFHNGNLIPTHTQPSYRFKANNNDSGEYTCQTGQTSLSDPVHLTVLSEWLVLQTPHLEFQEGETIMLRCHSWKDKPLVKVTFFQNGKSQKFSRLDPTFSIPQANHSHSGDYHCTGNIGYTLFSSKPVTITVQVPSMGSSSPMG
As to the kind of experiment: SPR (Biacore); KD of H240-Kn033/H240-Hl033/L73-k0 divided by KD of the variant. As for the experimental part:
(§2) Next, the amino acid at position 330 was examined. The A330M alteration has been introduced into H240-Hl076 of H240-Kn125/H240-Hl076/L73-k0. […] L73-k0 was used as the common antibody L chain. Binding of the produced variants to FcgRIa, FcgRIIaR, FcgRIIaH, FcgRIIb, FcgRIIIaF, and FcgRIIIaV was measured according to the method of Reference Example 8.
as §1

The target of assay [7] is T7, FcgRIIaH (human, UniProt P12318 34-217).
T7 construct: extracellular domain; also called FcγRIIa H; FcγRIIa type H; not shown: His tag at the C terminus
T7 sequence (looked up): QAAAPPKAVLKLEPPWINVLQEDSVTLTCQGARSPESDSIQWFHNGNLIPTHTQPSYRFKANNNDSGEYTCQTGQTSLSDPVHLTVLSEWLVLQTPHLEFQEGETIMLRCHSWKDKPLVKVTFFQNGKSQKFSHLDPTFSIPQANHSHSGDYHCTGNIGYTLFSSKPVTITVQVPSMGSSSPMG
The assay is described as above. The method, then:
as §2, §1

The target in assay [8] is T8, FcgRIIb (human, UniProt P31994 43-217).
T8 construct: extracellular domain; also called FcγRIIb; 2b; not shown: His tag at the C terminus
T8 sequence (looked up): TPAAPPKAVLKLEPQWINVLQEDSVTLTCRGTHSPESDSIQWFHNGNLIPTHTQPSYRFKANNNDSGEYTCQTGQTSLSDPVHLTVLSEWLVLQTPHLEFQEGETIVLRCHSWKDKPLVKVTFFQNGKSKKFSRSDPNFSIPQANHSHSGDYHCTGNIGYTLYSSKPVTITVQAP
Described as above. As for the experimental part:
as §2, §1

Assay [9] has as its target T9, FcgRIIIaF (human, UniProt P08637 17-208).
T9 construct: extracellular domain; Polymorphic site after J. Clin. Invest; also called FcγRIIIa F; 3aF; not shown: His tag at the C terminus
The assay is described as above. As for the experimental part: as §2, §1

Assay [10] concerns the target T10, FcgRIIIaV (human, UniProt P08637 17-208).
T10 construct: extracellular domain; Polymorphic site after J. Clin. Invest; also called FcγRIIIa V; 3aV; not shown: His tag at the C terminus
The description is as above. As for the experimental part: as §2, §1
T10 sequence (P08637 17-208 F176V limits assumed): as the sequence (P08637 17-208 F176V limits assumed) above

T9 sequence (P08637 17-208): as the sequence (P08637 17-208 F176V limits assumed) above, with V160F counted along it
T1 sequence (P12314 16-292): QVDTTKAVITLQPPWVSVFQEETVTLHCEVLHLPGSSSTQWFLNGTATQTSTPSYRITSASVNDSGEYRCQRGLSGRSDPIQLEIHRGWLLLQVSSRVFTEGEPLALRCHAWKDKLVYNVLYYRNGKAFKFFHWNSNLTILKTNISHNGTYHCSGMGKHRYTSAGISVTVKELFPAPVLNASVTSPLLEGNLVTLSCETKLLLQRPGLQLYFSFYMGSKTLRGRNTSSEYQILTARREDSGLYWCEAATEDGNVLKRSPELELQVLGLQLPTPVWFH

B1: H240-Kn149/H240-Hl068/L73-k0 (antibody, human IgG1, kappa)
heavy 1: QDQLVQSGAEVKKPGASVKVSCKASGFNIKDTYIQWVRQAPGQGLEWMGRIDPLRKQTKYREKFEGRVTITADTSTNTAYMELSSLRSEDTAVYYCVRSGREFDYWGQGTLVTVSSASTKGPSVFPLAPSSKSTSGGTAALGCLVKDYFPEPVTVSWNSGALTSGVHTFPAVLQSSGLYSLSSVVTVPSSSLGTQTYICNVNHKPSNTKVDKKVEPKSCDKTHTCPPCPAPEYYWGPMVFLFPPKPKDTLMISRTPEVTCVVVDVSDEDPEVKFNWYVDGVEVHNAKTKPREEQYNATYRVVSVLTVLHQDWLNGKEYKCKVSNKDWPAPIELTISKAKGQPREPQVCTLPPSRDELTKNQVSLWCLVKGFYPSDIAVEWESNGQPENNYKTTPPVLDSDGSFFLYSKLTVDKSRWQQGNVFSCSVMHEALHNHYTQKSLSLSP
heavy 2: QDQLVQSGAEVKKPGASVKVSCKASGFNIKDTYIQWVRQAPGQGLEWMGRIDPLRKQTKYREKFEGRVTITADTSTNTAYMELSSLRSEDTAVYYCVRSGREFDYWGQGTLVTVSSASTKGPSVFPLAPSSKSTSGGTAALGCLVKDYFPEPVTVSWNSGALTSGVHTFPAVLQSSGLYSLSSVVTVPSSSLGTQTYICNVNHKPSNTKVDKKVEPKSCDKTHTCPPCPAPELLGGPSVFLFPPKPKDTLMISRTPEVTCVVVDVSHEEPEVKFNWYVDGVEVHNAKTKPREEQYNSTYRVVSVLTVLHQDWLNGKEYKCKVSNDALPKPIEETISKAKGQPREPQVYTLPPSRCELTKNQVSLSCAVKGFYPSDIAVEWESNGQPENNYKTTPPVLDSDGSFFLVSKLTVDKSRWQQGNVFSCSVMHEALHNHYTQKSLSLSP
light: DIQMTQSPSSLSASVGDRVTITCRASQDIHKYIAWYQQKPGQAPRLLIQYTSTLQPGVPSRFSGSGSGTDYTFTISSLQPEDIATYYCLQYEQLRTFGGGTKVEIKRTVAAPSVFIFPPSDEQLKSGTASVVCLLNNFYPREAKVQWKVDNALQSGNSQESVTEQDSKDSTYSLSSTLTLSKADYEKHKVYACEVTHQGLSSPVTKSFNRGEC
notes: Heterodimerized anti-epiregulin IgG1 antibody; L328W and K334L in H240-Kn120
With B1, the “relative KD” value in assay [1] came out at 0.4; in [2] it was 1.1; in [3], 1.6; in assay [4], 1; in [5] it was 1.1.

B2: H240-Kn033/H240-Hl033/L73-k0 (antibody, human IgG1, kappa)
heavy 1: not shown
heavy 2: not shown
light: DIQMTQSPSSLSASVGDRVTITCRASQDIHKYIAWYQQKPGQAPRLLIQYTSTLQPGVPSRFSGSGSGTDYTFTISSLQPEDIATYYCLQYEQLRTFGGGTKVEIKRTVAAPSVFIFPPSDEQLKSGTASVVCLLNNFYPREAKVQWKVDNALQSGNSQESVTEQDSKDSTYSLSSTLTLSKADYEKHKVYACEVTHQGLSSPVTKSFNRGEC
notes: Anti-epiregulin IgG1 with knobs-into-holes alterations only
For the molecule B2, the “fold 2aR” value in [6] amounted to 1 fold. Also, the “fold 2aH” value in [7] turned out to be 1 fold. Moreover, the “fold 2b” value in [8] turned out to be 1 fold. Further, the “fold 3aF” value in assay [9] was 1 fold. Moreover, in [10], the “fold 3aV” value came out at 1 fold.

B3: H240-Kn032/H240-Hl032/L73-k0 (antibody, human IgG1, kappa)
heavy 1: QDQLVQSGAEVKKPGASVKVSCKASGFNIKDTYIQWVRQAPGQGLEWMGRIDPLRKQTKYREKFEGRVTITADTSTNTAYMELSSLRSEDTAVYYCVRSGREFDYWGQGTLVTVSSASTKGPSVFPLAPSSKSTSGGTAALGCLVKDYFPEPVTVSWNSGALTSGVHTFPAVLQSSGLYSLSSVVTVPSSSLGTQTYICNVNHKPSNTKVDKKVEPKSCDKTHTCPPCPAPELLGGPDVFLFPPKPKDTLMISRTPEVTCVVVDVSHEDPEVKFNWYVDGVEVHNAKTKPREEQYNSTYRVVSVLTVLHQDWLNGKEYKCKVSNKALPLPEEKTISKAKGQPREPQVCTLPPSRDELTKNQVSLWCLVKGFYPSDIAVEWESNGQPENNYKTTPPVLDSDGSFFLYSKLTVDKSRWQQGNVFSCSVMHEALHNHYTQKSLSLSP
heavy 2: QDQLVQSGAEVKKPGASVKVSCKASGFNIKDTYIQWVRQAPGQGLEWMGRIDPLRKQTKYREKFEGRVTITADTSTNTAYMELSSLRSEDTAVYYCVRSGREFDYWGQGTLVTVSSASTKGPSVFPLAPSSKSTSGGTAALGCLVKDYFPEPVTVSWNSGALTSGVHTFPAVLQSSGLYSLSSVVTVPSSSLGTQTYICNVNHKPSNTKVDKKVEPKSCDKTHTCPPCPAPELLGGPDVFLFPPKPKDTLMISRTPEVTCVVVDVSHEDPEVKFNWYVDGVEVHNAKTKPREEQYNSTYRVVSVLTVLHQDWLNGKEYKCKVSNKALPLPEEKTISKAKGQPREPQVYTLPPSRCELTKNQVSLSCAVKGFYPSDIAVEWESNGQPENNYKTTPPVLDSDGSFFLVSKLTVDKSRWQQGNVFSCSVMHEALHNHYTQKSLSLSP
light: DIQMTQSPSSLSASVGDRVTITCRASQDIHKYIAWYQQKPGQAPRLLIQYTSTLQPGVPSRFSGSGSGTDYTFTISSLQPEDIATYYCLQYEQLRTFGGGTKVEIKRTVAAPSVFIFPPSDEQLKSGTASVVCLLNNFYPREAKVQWKVDNALQSGNSQESVTEQDSKDSTYSLSSTLTLSKADYEKHKVYACEVTHQGLSSPVTKSFNRGEC
notes: S239D/A330L/I332E in both H chains
As for B3, in assay [6], the “fold 2aR” value was determined as 2.2 fold. The “fold 2aH” value in assay [7] came to 0.8 fold. Further, in assay [8], the “fold 2b” value stood at 5.3 fold. Moreover, in assay [9], the “fold 3aF” value is 31.9 fold. The “fold 3aV” value in assay [10] turned out to be 15.5 fold.
